Laboratory results as given in patent US11834518 (dated 2023).
Like-named read-outs stand apart in the source and are kept apart here. Blank lines part the entries; values can stand above or below the binder they belong to. Square brackets hold non-standard residues; d marks the D form. Ends that are not written are not given here. F2Pmp = N[C@@H](Cc1ccc(C(F)(F)P(=O)(O)O)cc1)C(=O)O; pY = N[C@@H](Cc1ccc(OP(=O)(O)O)cc1)C(=O)O; AEEA = NCCOCCOCC(=O)O

What was measured:
STEP32 C/S [1] = biological target: T1, STEP32 C/S (human, UniProt P54829); assay: FP competition
T1 chain: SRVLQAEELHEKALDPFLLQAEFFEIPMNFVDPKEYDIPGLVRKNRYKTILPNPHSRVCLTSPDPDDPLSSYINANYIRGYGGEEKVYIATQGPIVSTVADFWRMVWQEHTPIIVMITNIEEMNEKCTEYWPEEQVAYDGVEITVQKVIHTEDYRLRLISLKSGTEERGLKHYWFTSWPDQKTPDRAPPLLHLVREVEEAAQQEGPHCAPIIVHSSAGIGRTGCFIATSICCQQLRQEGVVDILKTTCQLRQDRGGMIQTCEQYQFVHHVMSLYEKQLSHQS

STEP32 WT [2] = biological target: T2, STEP32 WT (human, UniProt P54829); assay: SPR 25C
T2 chain: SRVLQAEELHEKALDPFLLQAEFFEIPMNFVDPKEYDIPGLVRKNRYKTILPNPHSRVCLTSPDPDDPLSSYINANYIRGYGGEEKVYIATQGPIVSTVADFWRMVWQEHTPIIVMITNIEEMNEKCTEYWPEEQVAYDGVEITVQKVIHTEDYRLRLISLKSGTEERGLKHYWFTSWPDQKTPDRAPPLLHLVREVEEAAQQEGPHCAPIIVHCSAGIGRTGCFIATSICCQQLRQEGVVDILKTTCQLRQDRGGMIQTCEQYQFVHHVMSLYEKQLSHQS

STEP32 WT [3] = biological target: T2, STEP32 WT; assay: SPR 25C
STEP32 C/S [4] = biological target: T1, STEP32 C/S; assay: SPR 25C
STEP32 C/S [5] = biological target: T1, STEP32 C/S; assay: SPR 25C
STEP32 C/S [6] = biological target: T1, STEP32 C/S; assay: FP competition
STEP32 C/S [7] = biological target: T1, STEP32 C/S; assay: SPR 25C
STEP32 C/S [8] = biological target: T1, STEP32 C/S; assay: FP competition
STEP32 C/S [9] = biological target: T1, STEP32 C/S; assay: FP competition
STEP32 C/S [10] = biological target: T1, STEP32 C/S; assay: SPR 25C

Ki (STEP32 C/S [1]): 5340 nM
Binder: [AEEA]YV[pY]G [p3Ysh-5]

Ki (STEP32 C/S [1]): 13700 nM
binding result (STEP32 C/S [4]): no binding
Binder: [AEEA]NS[pY]G [p3Ysh-4]

Kd (STEP32 C/S [5]): 6130 nM
Ki (STEP32 C/S [1]): 6960 nM
Kd (STEP32 C/S [7]): 6130 nM
Binder: [AEEA]FGYNV[pY]G [p3Ysh-6]

IC50 (STEP32 C/S [8]): 3360 nM
Ki (STEP32 C/S [9]): 760 nM
Binder: EGYNV[pY]GD [p-fin 5]

IC50 (STEP32 C/S [8]): 1860 nM
Ki (STEP32 C/S [9]): 360 nM
Kd (STEP32 C/S [10]): 90 nM
Kd (STEP32 C/S [7]): 88.4 nM
Binder: EGYNV[pY]E [p-fin 4]

IC50 (STEP32 C/S [8]): 8840 nM
Ki (STEP32 C/S [9]): 2160 nM
Binder: NGYNV[pY] [p-fin 3]

IC50 (STEP32 C/S [8]): 7150 nM
Ki (STEP32 C/S [9]): 1850 nM
Binder: DGYNV[pY] [p-fin 2]

IC50 (STEP32 C/S [8]): 2600 nM
Ki (STEP32 C/S [9]): 690 nM
Kd (STEP32 C/S [5]): 60 nM
Ki (STEP32 C/S [1]): 1640 nM
Kd (STEP32 C/S [7]): 53.1 nM
Binder: [AEEA]EGYNV[pY] [p3Ysh-3]

IC50 (STEP32 C/S [8]): 8010 nM
Ki (STEP32 C/S [9]): 1900 nM
Binder: GYNV[pY] [p-fin 1]

Ki (STEP32 C/S [1]): 4570 nM
binding result (STEP32 C/S [4]): no binding
Binder: [AEEA]FS[pY]G [p3Ysh-7]

Kd (STEP32 C/S [5]): 3960 nM
Ki (STEP32 C/S [1]): 13100 nM
Kd (STEP32 C/S [7]): 3960 nM
Binder: [AEEA]YNV[pY]G [p3Ysh-2]

More lines, now with the values behind:

Binder: EGYNV[F2Pmp] [3Ysh-3-F2Pmp]
Kd (STEP32 WT [2]): 242 nM
Kd (STEP32 WT [3]): 240 nM

Binder: ATYKEGYNV[pY]G [p3Y]
Kd (STEP32 C/S [5]): 240 nM
Ki (STEP32 C/S [6]): 2820 nM
Ki (STEP32 C/S [1]): 2360 nM
Kd (STEP32 C/S [7]): 232 nM

Binder: ATYAEGYNV[pY]G [p3YAla4]
Ki (STEP32 C/S [6]): 2530 nM

Binder: ATYKEGANV[pY]G [p3YAla7]
Ki (STEP32 C/S [6]): 4450 nM

Binder: ATYKEGYAV[pY]G [p3YAla8]
Ki (STEP32 C/S [6]): 2470 nM

Binder: ATYKAGYNV[pY]G [p3YAla5]
Ki (STEP32 C/S [6]): 4140 nM

Binder: ATYKEGYNA[pY]G [p3YAla9]
Ki (STEP32 C/S [6]): 5940 nM

Binder: ATYKEGYNV[F2Pmp]G [3Y-F2Pmp]
Kd (STEP32 WT [2]): 268 nM
Kd (STEP32 WT [3]): 270 nM

Binder: ATAKEGYNV[pY]G [p3YAla3]
Ki (STEP32 C/S [6]): 4810 nM

Binder: ATYKEAYNV[pY]G [p3YAla6]
Ki (STEP32 C/S [6]): 2310 nM

Binder: AAYKEGYNV[pY]G [p3YAla2]
Ki (STEP32 C/S [6]): 1620 nM

Binder: ATYKEGYNV[pY]A [p3YAla10]
Ki (STEP32 C/S [6]): 2710 nM

Binder: [AEEA]NV[pY]G [p3Ysh-1]
Kd (STEP32 C/S [5]): 26000 nM
Ki (STEP32 C/S [1]): 4990 nM
Kd (STEP32 C/S [7]): 26000 nM
